This passage reports Km results from paper PMC3737229, “Novel Dicarboxylate Selectivity in an Insect Glutamate Transporter Homolog” (PLoS ONE, 2013).

For one data set, the target named is T1, CuqDCT (Culex quinquefasciatus, UniProt B0W0K5).
T1 construct: gene 6031434; synthetic gene, full length, in-frame C-terminal GFP (EGFP), pCDNA3.1; cRNA expressed in Xenopus laevis oocytes
T1 sequence (B0W0K5 1-483): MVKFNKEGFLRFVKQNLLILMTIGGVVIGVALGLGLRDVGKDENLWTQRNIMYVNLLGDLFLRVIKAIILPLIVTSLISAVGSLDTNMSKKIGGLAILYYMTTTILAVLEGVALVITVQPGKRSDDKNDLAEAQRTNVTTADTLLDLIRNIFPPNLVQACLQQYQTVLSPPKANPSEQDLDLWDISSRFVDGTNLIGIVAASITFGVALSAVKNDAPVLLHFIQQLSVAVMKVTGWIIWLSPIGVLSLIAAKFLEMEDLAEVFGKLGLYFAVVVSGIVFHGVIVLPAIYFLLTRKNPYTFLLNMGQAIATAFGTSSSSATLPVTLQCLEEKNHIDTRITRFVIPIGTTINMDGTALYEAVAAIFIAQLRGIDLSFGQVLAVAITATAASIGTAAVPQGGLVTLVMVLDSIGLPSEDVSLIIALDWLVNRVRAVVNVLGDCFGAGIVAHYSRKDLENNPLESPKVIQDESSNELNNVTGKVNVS
As to the kind of experiment: two-electrode voltage clamp, transport currents in oocytes. To be noted: -60 mV; 96 mM NaCl Ringer, pH 7.5. The format is cell-based. (Two-electrode voltage clamp is typically applied to oocytes expressing channels or transporters.)

The subject of a further data set is T2, N[C@@H](CCC(=O)O)C(=O)O.
T2 construct: synthetic gene, full length, in-frame C-terminal GFP (EGFP), pCDNA3.1; cRNA expressed in Xenopus laevis oocytes
The description is as above. In kind it is cell-based, Culex quinquefasciatus. To be noted: -60 mV, 96 mM NaCl Ringer, pH 7.5.

In a further data set the test system is T3, O=C(O)C[C@H](O)C(=O)O.
T3 construct: synthetic gene, full length, in-frame C-terminal GFP (EGFP), pCDNA3.1; cRNA expressed in Xenopus laevis oocytes
The data set is described as above. In kind it is cell-based, Culex quinquefasciatus. The conditions noted are these: -60 mV, 96 mM NaCl Ringer, pH 7.5.

Substrate in data set [1]: O=C(O)CCC(=O)C(=O)O
Described as above. In kind it is cell-based, Culex quinquefasciatus. The conditions noted are these: -60 mV, 96 mM NaCl Ringer, pH 7.5.

Substrate in data set [2]: N[C@@H](CCC(=O)O)C(=O)O
The description is as above. The format is cell-based, Culex quinquefasciatus. The conditions noted are these: -60 mV, 96 mM NaCl Ringer, pH 7.5.

Substrate in data set [3]: O=C(O)C[C@H](O)C(=O)O
Kind of data set: cells, lysate or membranes. To be noted: -60 mV, 96 mM NaCl Ringer, pH 7.5.

Consider `O=C(O)CCC(=O)O` [succinate], for which the Km – broadly, the substrate concentration at which the rate is half of its maximum – at CuqDCT came out at 50.8 ± 2.3 µM.

As to CuqDCT (Culex quinquefasciatus; N428D), the figures for the Km with N[C@@H](CCC(=O)O)C(=O)O and with O=C(O)C[C@H](O)C(=O)O were 13.8 ± 1.3 µM and 8800 ± 1500 µM, respectively.

B1: CuqDCT (Culex quinquefasciatus) (protein)
chain: MVKFNKEGFLRFVKQNLLILMTIGGVVIGVALGLGLRDVGKDENLWTQRNIMYVNLLGDLFLRVIKAIILPLIVTSLISAVGSLDTNMSKKIGGLAILYYMTTTILAVLEGVALVITVQPGKRSDDKNDLAEAQRTNVTTADTLLDLIRNIFPPNLVQACLQQYQTVLSPPKANPSEQDLDLWDISSRFVDGTNLIGIVAASITFGVALSAVKNDAPVLLHFIQQLSVAVMKVTGWIIWLSPIGVLSLIAAKFLEMEDLAEVFGKLGLYFAVVVSGIVFHGVIVLPAIYFLLTRKNPYTFLLNMGQAIATAFGTSSSSATLPVTLQCLEEKNHIDTRITRFVIPIGTTINMDGTALYEAVAAIFIAQLRGIDLSFGQVLAVAITATAASIGTAAVPQGGLVTLVMVLDSIGLPSEDVSLIIALDWLVNRVRAVVNVLGDCFGAGIVAHYSRKDLENNPLESPKVIQDESSNELNNVTGKVNVS
notes: synthetic gene, full length, in-frame C-terminal GFP (EGFP), pCDNA3.1; cRNA expressed in Xenopus laevis oocytes
On to B1, for which the values for the Km in data set [1], in data set [2] and in data set [3] were 20.2 ± 1.2 µM, 1085 ± 96 µM and 10.5 ± 0.5 µM, respectively.
